Measurements: publication PMC3585358, “Identification and Multidimensional Optimization of an Asymmetric Bispecific IgG Antibody Mimicking the Function of Factor VIII Cofactor Activity” (PLoS ONE, 2013)

Experiments:
human factor IXa = target: T1, human factor IXa (Homo sapiens, UniProt P00740); test: SPR; Biacore T200; anti-FIXa or anti-FX monospecific antibodies captured on MabSelect SuRe Ligand (recombinant Protein A) immobilized on a CM4 chip; natalizumab (human IgG4) on the reference cell; 0, 80, 160, 320, 640 or 1,280 nM human FIXa or FX injected at 30 uL/min; 10 mM HEPES pH 7.4, 150 mM NaCl, 0.05% surfactant P20, 2.5 mM CaCl2; conditions: both partners purified
T1 construct: also called FIXa; source: bought: Enzyme Research Laboratories (purified human coagulation factors; the source is stated for the enzymatic assay)
T1 sequence (P00740 47-191, chain 1 of 2): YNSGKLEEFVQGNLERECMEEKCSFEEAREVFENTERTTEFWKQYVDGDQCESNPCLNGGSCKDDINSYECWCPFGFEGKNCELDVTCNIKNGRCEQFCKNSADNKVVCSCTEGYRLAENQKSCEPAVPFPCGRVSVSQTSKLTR
T1 sequence (P00740 227-461, chain 2 of 2): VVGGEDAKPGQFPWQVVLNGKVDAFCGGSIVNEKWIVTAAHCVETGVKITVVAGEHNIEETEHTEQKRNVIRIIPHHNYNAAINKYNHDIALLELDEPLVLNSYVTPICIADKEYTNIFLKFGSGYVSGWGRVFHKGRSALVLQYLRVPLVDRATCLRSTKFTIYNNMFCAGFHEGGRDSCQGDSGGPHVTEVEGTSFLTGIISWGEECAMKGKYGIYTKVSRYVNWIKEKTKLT

human factor X = target: T2, human factor X (Homo sapiens, UniProt P00742); test: as above; conditions: both partners purified
T2 construct: human coagulation factor X (zymogen), light chain; also called FX; source: bought: Enzyme Research Laboratories (purified human coagulation factors; the source is stated for the enzymatic assay)
T2 sequence (P00742 41-179, chain 1 of 2): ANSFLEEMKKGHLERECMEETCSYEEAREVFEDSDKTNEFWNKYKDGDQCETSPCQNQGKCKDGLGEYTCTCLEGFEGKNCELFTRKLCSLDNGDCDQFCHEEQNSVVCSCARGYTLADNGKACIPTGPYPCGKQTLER
T2 sequence (P00742 183-488, chain 2 of 2): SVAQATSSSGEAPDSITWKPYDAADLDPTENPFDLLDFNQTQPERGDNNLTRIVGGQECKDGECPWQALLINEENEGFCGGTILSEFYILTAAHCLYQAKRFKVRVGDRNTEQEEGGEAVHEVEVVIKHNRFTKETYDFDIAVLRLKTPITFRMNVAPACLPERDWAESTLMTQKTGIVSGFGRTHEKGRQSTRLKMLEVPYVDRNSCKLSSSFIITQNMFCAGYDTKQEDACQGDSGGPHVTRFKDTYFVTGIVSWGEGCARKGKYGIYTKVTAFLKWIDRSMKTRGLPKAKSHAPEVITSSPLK

Binder	binding result (human factor IXa)	binding result (human factor X)
anti-FIXa monospecific IgG of hBS910 (anti-FIXa heavy chain and common light chain) (antibody, V domains shown, as the anti-FIXa heavy chain of m1; as the common light chain of m1; The SPR methods say that monospecific antibodies were captured; also called monospecific anti-FIXa antibody; anti-FIXa homodimeric antibody; source: HEK293 cells, transfected; filtrated culture supernatants or Protein A purified antibodies; copies: 2 + 2) VH: QVQLVESGGGLVQPGGSLRLSCAASGFTFSYYDIQWVRQAPGKGLEWVSSISPSGQSTYYRREVKGRFTISRDNSKNTLYLQMNSLRAEDTAVYYCARRTGREYGGGWYFDYWGQGTLVTVSS VL: DIQMTQSPSSLSASVGDRVTITCKASRNIERQLAWYQQKPGQAPELLIYQASRKESGVPDRFSGSRYGTDFTLTISSLQPEDIATYYCQQYSDPPLTFGGGTKVEIK	binds	
anti-FX monospecific IgG of hBS910 (anti-FX heavy chain and common light chain) (antibody, V domains shown, as the anti-FX heavy chain of m1; as the common light chain of m1; The SPR methods say that monospecific antibodies were captured; also called monospecific anti-FX antibody; anti-FX homodimeric antibody; source: HEK293 cells, transfected; filtrated culture supernatants or Protein A purified antibodies; copies: 2 + 2) VH: QVQLVQSGSELKKPGASVKVSCKASGYTFTDNNMDWVRQAPGQGLEWMGDINTRSGGSIYNEEFQDRVIMTVDKSTDTAYMELSSLRSEDTATYHCARRKSYGYYLDEWGEGTLVTVSS VL: DIQMTQSPSSLSASVGDRVTITCKASRNIERQLAWYQQKPGQAPELLIYQASRKESGVPDRFSGSRYGTDFTLTISSLQPEDIATYYCQQYSDPPLTFGGGTKVEIK		binds
